Among the data in PMC3592467 are stoichiometry N values, retold here.

This experiment concerns the target T1, MBD3-GFP, O95983.
T1 chain: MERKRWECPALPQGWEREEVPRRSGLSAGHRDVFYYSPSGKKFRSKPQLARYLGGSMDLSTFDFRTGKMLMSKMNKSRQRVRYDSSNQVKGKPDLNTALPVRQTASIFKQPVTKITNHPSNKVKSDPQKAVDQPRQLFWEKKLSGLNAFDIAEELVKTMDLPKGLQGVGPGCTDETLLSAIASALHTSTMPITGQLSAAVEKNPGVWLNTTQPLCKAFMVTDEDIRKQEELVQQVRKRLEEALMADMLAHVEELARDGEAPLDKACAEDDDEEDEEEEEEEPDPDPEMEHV
Description: affinity purification with mass spectrometry. As to conditions: remark: other sources report otherwise.

B1: DOC-1, O14519 1-115 (natural protein)
chain: MSYKPNLAAHMPAAALNAAGSVHSPSTSMATSSQYRQLLSDYGPPSLGYTQGTGNSQVPQSKYAELLAIIEELGKEIRPTYAGSKSAMERLKRGIIHARGLVRECLAETERNARS
Regarding B1, the stoichiometry N amounted to 2 per MBD3.

Broadly, the stoichiometry N is a count of units in the complex or per binding partner.
